This test concerns the target human TLR5 on HEK-Blue-hTLR5 cells (human) (UniProt O60602). The experiment in a line: cell-based or functional assay.
UniProt O60602, sequence (O60602 21-858): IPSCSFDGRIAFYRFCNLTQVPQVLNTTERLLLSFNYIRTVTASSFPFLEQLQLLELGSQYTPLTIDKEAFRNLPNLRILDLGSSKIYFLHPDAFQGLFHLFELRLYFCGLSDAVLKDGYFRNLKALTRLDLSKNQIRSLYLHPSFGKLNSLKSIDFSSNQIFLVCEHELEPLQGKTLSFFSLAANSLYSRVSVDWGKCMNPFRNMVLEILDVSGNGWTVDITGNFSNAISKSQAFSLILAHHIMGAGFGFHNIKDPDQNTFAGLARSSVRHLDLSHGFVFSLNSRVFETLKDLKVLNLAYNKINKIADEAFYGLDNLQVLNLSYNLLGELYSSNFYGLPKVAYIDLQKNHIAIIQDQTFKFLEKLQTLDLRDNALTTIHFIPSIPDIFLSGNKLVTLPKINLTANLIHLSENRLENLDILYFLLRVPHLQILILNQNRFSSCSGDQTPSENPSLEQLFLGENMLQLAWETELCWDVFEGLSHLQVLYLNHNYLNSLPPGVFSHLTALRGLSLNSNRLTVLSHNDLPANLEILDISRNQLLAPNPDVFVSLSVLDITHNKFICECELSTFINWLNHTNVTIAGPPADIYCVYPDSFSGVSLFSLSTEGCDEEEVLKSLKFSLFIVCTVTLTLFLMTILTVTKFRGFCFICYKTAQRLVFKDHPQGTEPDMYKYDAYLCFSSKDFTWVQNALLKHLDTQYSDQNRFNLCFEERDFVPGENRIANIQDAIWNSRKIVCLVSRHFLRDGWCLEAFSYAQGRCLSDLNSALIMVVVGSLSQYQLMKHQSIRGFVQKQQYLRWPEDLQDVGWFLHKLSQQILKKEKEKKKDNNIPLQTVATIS

With “flagellin (G239HPG, M310I, M466I) conjugated to Hepatitis B core (HBc) VLP by azide-alkyne click reaction”, the flagellin bioactivity (SEAP reporter, HEK-Blue-hTLR5 cells), fold against free flagellin turned out to be 10 fold.

For the substance “flagellin (fliC gene product) from Salmonella typhimurium SL1344, wild-type, produced by cell-free protein synthesis (from UniProt P06179 2-495) (ligand)”, the EC50 in flagellin bioactivity assay (SEAP reporter, HEK-Blue-hTLR5 cells) came to 2.4 pM and the bioactivity assay (SEAP reporter, HEK-Blue-hTLR5 cells), given as 'affinity' came to 6 pM.

The substance “flagellin Mutation III (M1HPG, Ala2Ile, M310I, M466I) conjugated to Hepatitis B core (HBc) VLP” returned a bioactivity assay (SEAP reporter, HEK-Blue-hTLR5 cells), fold against free flagellin of 5 fold.

The record behind these values is patent US20130323281A1.
